Results on one substance are retold here after patent publication US20070134734.

The target of data set [1] is GST-fused stress-induced phosphoprotein 1 (STIP1) (GST gene fused to the N-terminus), cell-free synthesized (UniProt P31948).
The target in data set [2] is GST-fused eIF4B (GST gene fused to the N-terminus), cell-free synthesized (UniProt P23588).
GST-fused eIF4B (GST gene fused to the N-terminus), cell-free synthesized, sequence (P23588 whole entry, the tested form may be a part): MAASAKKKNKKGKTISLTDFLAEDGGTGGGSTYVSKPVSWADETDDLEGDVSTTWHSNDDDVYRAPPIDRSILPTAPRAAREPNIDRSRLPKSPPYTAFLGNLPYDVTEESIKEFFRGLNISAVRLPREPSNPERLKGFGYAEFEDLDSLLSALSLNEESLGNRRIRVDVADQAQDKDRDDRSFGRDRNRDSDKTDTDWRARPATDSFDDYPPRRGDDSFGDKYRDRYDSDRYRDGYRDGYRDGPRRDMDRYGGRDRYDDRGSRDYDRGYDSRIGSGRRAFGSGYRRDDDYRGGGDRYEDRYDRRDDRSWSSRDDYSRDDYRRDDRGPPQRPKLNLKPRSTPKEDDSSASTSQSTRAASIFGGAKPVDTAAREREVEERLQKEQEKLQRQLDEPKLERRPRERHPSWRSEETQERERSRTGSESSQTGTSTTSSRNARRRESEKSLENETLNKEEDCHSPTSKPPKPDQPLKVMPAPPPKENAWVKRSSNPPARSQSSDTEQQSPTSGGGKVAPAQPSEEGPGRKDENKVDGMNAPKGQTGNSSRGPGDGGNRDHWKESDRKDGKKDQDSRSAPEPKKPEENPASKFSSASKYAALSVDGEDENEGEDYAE

For the substance “human CaMKIIδ protein (calmodulin kinase II delta), synthesized in a wheat embryo cell-free protein synthesis system”, the “in vitro phosphorylation assay ([γ-32P]ATP, GST-fused substrate on glutathione resin, SDS-PAGE autoradiography)” value is “there was reproduced the reaction in which GST-fused eIF4B and STIP1 were phosphorylated by CaMKIIδ” in data set [1]; “there was reproduced the reaction in which GST-fused eIF4B and STIP1 were phosphorylated by CaMKIIδ” in data set [2].
